B1: C538 (antibody, V domains shown)
VH: QLQLQESGPGLVKPSETLSLTCTVSGGSISSSSYYWAWIRQPPGKGLEWIGNIYYSGITYYSPSLKSRVTISVDTSKNQFSLKLRSVTAADTAVYYCARQHRYGSGSSELLWGQGTLVTVSS
VL: QSALTQPPSASGSPGQSVTISCTGTSSDVGSYNYVSWYQQHPGKAPKLMIYEVTKRPSGVPDRFSGSKSGNTASLTVSGLQADDEADYYCSSYAGSSNLIFGGGTKLTVL
B2: C560 (antibody, V domains shown)
VH: EVQLVESGGGLVQPGRSLRLSCAASGFTFDDYAMHWVRQAPGKGLEWVSGVSWNSGTIGYADSVKGRFTISRDNAKNSLYLQMNSLRAEDTALYYCAKIADIVRAYDFWSGQHFDAFDIWGQGTMVTVSS
VL: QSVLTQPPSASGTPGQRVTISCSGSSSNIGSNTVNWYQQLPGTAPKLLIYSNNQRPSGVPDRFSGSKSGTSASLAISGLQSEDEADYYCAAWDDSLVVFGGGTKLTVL
B3: C561 (antibody, V domains shown)
VH: EVQLVESGGGLVQPGRSLRLSCAASGFTFDDYAIHWVRQAPGKGLEWVSGVSWNSGTIGYADSVKGRFFISRDNAKNSLYLQMNSLRAEDTAWYYCAKIADLVGAYDFRSGQHFAAFDVWGQGTMVTVSS
VL: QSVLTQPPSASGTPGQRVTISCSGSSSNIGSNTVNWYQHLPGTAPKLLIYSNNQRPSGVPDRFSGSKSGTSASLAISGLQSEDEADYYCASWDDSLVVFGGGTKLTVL
B4: C539 (antibody, V domains shown)
VH: EVQLVESGGGLVQPGRSLRLSCAASGFTFDDYALHWVRQAPGKGLEWVSGISWNGDSIGYADSVKGRFTISRDNAKNSLSLQMNSLTAEDTALYYCAKGVEYSSSSNCDYWGQGTLVTVSS
VL: DIQMTQSPSSVSASVGDRVTITCRASQDISSWLAWYQQKPGKAPKLLISLASGLQSGVPSRFSGSGSETDFTLTISSLQPEDFATYYCQQTNSFPLTFGGGTKVEI
B5: C537 (antibody, V domains shown)
VH: QLQLQESGPGLVKPSETLSLTCTVSGGAISSRNYHWGWIRQPPGKGLEWIGSIYYSGSTYYSPSLKSRVTISVDTSKNQFSLRLSSVTAADTAVYYCARLETSGWYTEDVFDIWGQGTMVTVSS
VL: DIQMTQSPSSLSASVGDRVTITCRASQSISSYLNWYQQKPGKAPKLLIYAASSLQSGVPSRFSGSGSGTDFTLTISSLLPEDFATYYCQRSYSAMYTFGQGTKLEIK
B6: C555 (antibody, V domains shown)
VH: EVQLVESGGGLVKPGGSLRLSCAASGLTFSTTWMSWVRQAPGKGLEWVGRIKSKGDGGTTDFAGPVKGRFSISRDDSKNTLYLHMNSLKTEDTAVYYCTTDDPGSYYYGMDVWGQGTTVTVSS
VL: QTVVTQEPSLTVSPGGTVTLTCASSTGAVTSGHYPYWFQQKPGQAPRTLIYATSNKHSWTPARFSGSLLGGKAALTLSGAQPEDEADYYCLLSYSGARVFGGGTKLTVL
B7: C533 (antibody, V domains shown)
VH: EVQLVESGGSLVKPGGSLRLSCVASGLTFNHAWMSWVRQAPGKGLEWVGRIKSKIDGGTTDYAAPVKGRFTISRDDSKSTQYLQMNSLKTEDTAVYYCTTDCFWRLGGTTCYEHDAFDVWGQGTMVTVSS
VL: DIQMTQSPSSLSASVGDRVTITCRASQAIATFLNWYQQKPGKAPKLLIYAASSLQSGVPSRFSGSGSGTDFTLTISNLQPEDFATYYCQQSYNSLHFGGGTKVEIK
B8: C556 (antibody, V domains shown)
VH: QVQLVQSGAEVKKPGASVKVSCKASGYTFTYYYMHWVRQAPGQGLEWMGIINPSGGSTSYAQKFQGRVTMTRDTSTSTVYMELSSLRSEDTAVYYCARPLLPGETGSLNRLDYWGQGTLVTVSS
VL: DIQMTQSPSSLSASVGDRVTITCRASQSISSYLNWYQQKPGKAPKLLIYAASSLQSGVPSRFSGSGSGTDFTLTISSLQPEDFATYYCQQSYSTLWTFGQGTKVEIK
B9: C550 (antibody, V domains shown)
VH: EVQLVQSGAEVKKPGESLKISCKGSGYRFTNYWIGWVRQMPGKGLEWMGIIYPGDSDTRYSPSFQGQVTISADKSITTAYLQWSSLKASDTAMYYCARLSDRWYSPFDPWGQGTLVTVSS
VL: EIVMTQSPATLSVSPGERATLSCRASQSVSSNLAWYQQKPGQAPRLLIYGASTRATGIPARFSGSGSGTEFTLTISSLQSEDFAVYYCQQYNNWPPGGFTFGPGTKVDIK
B10: C535 (antibody, V domains shown)
VH: EVQLVESGGALVQPGRSLRLSCAASGFTFDDYAMHWVRQAPGKGLEWVSSISWNGVSIGYADSVRGRFTISRDNAKNSLYLQMNSLKIGDTAFYYCARGLDGSSSASPDSWGQGTLVTVSS
VL: DIQMTQSPSSVSASVGDRVTITCRASQGIGSWLAWYQQKPGKAPKLLIYLASSLQSGVPSRFSGSGSGTYFTLTISGLQPEDFATYYCQQGNSFPLTFGGGTKVEIK
B11: C534 (antibody, V domains shown)
VH: QVQLVQSGAEVKKPGSSVRVSCKASGGTFSRNVISWVRQAPGQGLEWMGGIIPMFATANYAQKFQGRVTITADESSSTAYMELSSLRSEDTAVYYCAREDFILVSAPIRENSYYYYGMDVWGQGTTVTVSS
VL: EIVLTQSPGTLSLSPGERATLSCRASQSVSSNYLAWYQQKPGQAPRLLIYDASSRATGIPDRFSGSGSGTDFTLTISRLEPEDFAVYYCQQYGGSPRTFGQGTKVEIK
B12: C536 (antibody, V domains shown)
VH: QVQLVESGGGLVKPGRSLRLSCTVSGFTFGAYAMSWFRQAPGKGLEWVGFIRSKTYGGTTEYAASLKGRFTISRDDSKSIAFLQMNSLKTEDTAVYFCSRGGYYDGSPYYWNRPDAFDIWGLGTMVTVS
VL: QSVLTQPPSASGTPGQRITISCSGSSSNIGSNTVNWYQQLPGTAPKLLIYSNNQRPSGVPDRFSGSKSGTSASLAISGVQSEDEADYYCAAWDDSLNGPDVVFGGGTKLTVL
B13: C558 (antibody, V domains shown)
VH: EVQLVQSGAEVKKPGESLKISCKVSGYTFTNYWIGWVRQMPGKGLEWMGIIYPGDSDTRYSPSFQGQVTISADKSIITAYLQWSSLKASDTAMYYCARVPSSSDYGDYGGFEYWGQGTLVTVSS
VL: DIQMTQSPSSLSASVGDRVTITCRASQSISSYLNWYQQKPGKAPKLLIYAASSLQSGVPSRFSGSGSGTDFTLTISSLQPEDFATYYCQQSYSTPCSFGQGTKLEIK
B14: C559 (antibody, V domains shown)
VH: EVQLVQSGAEVKKPGESLKISCKVSGYTFTNYWIGWVRQMPGKGLEWMGIIFPGDSDTRYSPSFQGQVTISADRSITTAYLQWRSLKASDTAMYYCARVPSSSDYGDYGGFEYWGQGTLVTVSS
VL: DIQMTQSPSSLSASVGDRVTITCRASQTITIYLNWYQQKPGKAPKLLIYAASSLQSGVPSRFSGSGSGTDFTLTISSLQPEDFATYYCQQSYSTPCSFGQGTKLEIK
B15: C552 (antibody, V domains shown)
VH: QVQLVESGGGVVQPGRSLRLSCAASGFTFSSYAMHWVRQAPGKGLEWVALISYDGSNKHYADSVKGRFTISRDNSKNTLYLQMNSLRAEDTAVYYCARAGTTNSDYFDYWGQGTLVTVSS
VL: SYELTQPPSVSVAPGKTARITCGGNNIGSKSVHWYQQKPGQAPVLVIYYDTDRPSGIPERFSGSNSGNTATLTISRVEAGDEADYYCQVWDSSSALWVFGGGTKLTVL
B16: C553 (antibody, V domains shown)
VH: QVQLVESGGGVVQPGRSLRLSCAASGFTFSNYEIHWVRQAPGKGLEWVAGISYDGSTKYYADSVKGRFTISRDNSKNTLYLQMNSLRPEDTAVFYCARAGTTNSDYFDYWGQGTLVTVSS
VL: SYELTQPPSVSVAPGMTARITCGGNTIGSKSVHWYQQKAGQAPVLVIYYDSDRPSGIPERFSGSNSGNTATLTISRVEAGDEADYYCQVWDSSSVLWVFGGGTKLTVL
B17: C578 (antibody, V domains shown)
VH: QVQLVESGGGVVQPGRSLRLSCAASGFTFSSSGMHWVRQAPGKGLEWVAIISYDGSNKYYADSVKGRFTISRDNSKNTLSLQMNSLRAEDTAVYYCAKDPLPFRDFFYYYMDVWGKGTTVTVSS
VL: QSALTQPASVSGSPGQSITISCTGTSSDVGGYNYVSWYQQHPGKAPKLMIYDVSNRPSGVSNRFSGSKSGNTASLTISGLQAEDEADYYCSSYTSSSTLGVFGTGTKVTVL
B18: C573 (antibody, V domains shown)
VH: QVQLQESGPGLVKPSGTLSLTCAVSGGSISTVNWWSWVRQPPGKGLEWIGEIHHSGNTNHNPSLRSRVTISVDKSKNQFSLKLRSVTAADTAVYYCARDGGRPGDAFDLWGQGTMVTVSS
VL: QSALTQPASVSGSPGQSITISCTGTSSDVGGYNYVSWYQQHPGKVPKVMIYDVSNRPSGISNRFSGSKSGNTASLTISGLQAEDEADYYCNSYRSNSTRVFGTGTKVTV
B19: C580 (antibody, V domains shown)
VH: EVQLVQSGAEVKKAGESLKISCNSSGYSFTNYWIAWVRQVPGKGLEWMGIIYLGDSDTRYSPSFQGRVTISADKSISAAYLHWSSLKASDTAIYYCARGGPPGGVKLELTDFWGQGTLVTVSS
VL: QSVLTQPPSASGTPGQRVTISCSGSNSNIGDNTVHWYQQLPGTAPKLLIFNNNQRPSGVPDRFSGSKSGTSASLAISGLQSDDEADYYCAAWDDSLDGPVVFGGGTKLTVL
B20: C576 (antibody, V domains shown)
VH: QVQLVQSGAEVKKPGSSVKVSCKASGGTFSIYAISWVRQAPGQGLEWMGGIIPILGTANYAQKFQGRVTITADESTSTAYMELSSLRSEDTAVYYCASFHVAYGDYIPFDYWGQGTLVTVSS
VL: not shown
B21: C577 (antibody, V domains shown)
VH: QVQLVQSGAEVKKPGSSVKVSCKASGDTFSIYAFSWVRQAPGQGLQWMGAIIPLLGTTNYAQKFLGRVTITADESTSTTFMELSSLTSEDTAVYHCATFHVAYGDYIPFDSWGQGTLVIVSS
VL: not shown
B22: C572 (antibody, V domains shown)
VH: EVQLVESGGGLIKPGRSLRLSCTASGFTFGDYAMTWFRQAPGKGLEWVGFIRSKAYGGTTGYAASVKYRFTISRDDSKSIAYLQMDSLKTEDTAVYYCTRWDGWSQHDYWGQGTLVTVSS
VL: DIVMTQSPLSLSVTPGEPASISCRSSQSLLHSNGNNYFDWYLQKPGQSPQLLIYLASNRASGVPDRFSGSGSGTDFTLKISRVEAEDVGVYYCMQVLQIPYTFGQGTKLEI
B23: C581 (antibody, V domains shown)
VH: EVQLVQSGAEVKKPGESLKISCKGSGYRFTSYWIAWVRQMPGKGLEWMGIIYPGDSDTRYSPSFQGQVTISADQSISTAYLQWSSLKASDTAMYYCARGGPPGGVKLELTDYWGQGALVTVSS
VL: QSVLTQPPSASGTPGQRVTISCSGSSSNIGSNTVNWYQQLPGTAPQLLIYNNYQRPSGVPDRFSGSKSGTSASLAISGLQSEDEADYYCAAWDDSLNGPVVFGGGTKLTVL
B24: C574 (antibody, V domains shown)
VH: QVQLVQSGAEVKKPGASVKVSCKASGYTFTSYGFSWVRQAPGQGLEWLGWISAYNGNTNYAQKLQGRVTMTTDTSTSTAYMELRSLRSDDTAVYYCARAIAVAGTSGEFDYWGQGTLVTVSS
VL: not shown

The target in the first assay is SARS-CoV-2 spike protein receptor binding domain (RBD) (SARS-CoV-2, UniProt P0DTC2 319-539). Put plainly: ELISA, RBD coated on plate, mAb titrated.
Take B1: the response was half-maximal at 3.95 ng/mL (EC50).
As for B2, the EC50 was 1.6 ng/mL.
Molecule B3 displayed an EC50 of 1.53 ng/mL.
On the same count and under the same terms, the figure for B4 is 1.3 ng/mL; for B5 it is 41.9 ng/mL.
The same measure, in the same setting: the result for B6 reads 2.88 ng/mL; that for B7, 1.61 ng/mL; that for B8, 1.36 ng/mL.
On the same count and under the same terms, the figure for B9 is 2.56 ng/mL; for B10 it is 2.46 ng/mL.
B11: the EC50 came to 4.85 ng/mL.
As for B12, a half-maximal response (EC50) required 1.88 ng/mL.
Still for that read-out and setting: the result for B13 reads 2.41 ng/mL.
The same measure, in the same setting: the result for B14 reads 2.89 ng/mL; that for B15, 1.08 ng/mL; that for B16, 1.19 ng/mL.

The next assay shares this target. Briefly: ELISA on plate-coated RBD.
Consider B17, for which the EC50 was 1.08 ng/mL.
B18 showed a concentration for a half-maximal effect (EC50) of 2.2 ng/mL.
As to B19, the response was half-maximal at 1.82 ng/mL (EC50).
Take B20: the response was half-maximal at 5.29 ng/mL (EC50).
On to B21, for which a half-maximal response (EC50) required 1.32 ng/mL.
Still for that read-out and setting: the figure for B22 is 2.9 ng/mL; for B23 it is 1.58 ng/mL.
B24 displayed an EC50 of 8.12 ng/mL.
